From article PMC8183112

B1: BK channel β1 subunit: N80Q/N142Q (protein)
parent chain: MVKKLVMAQKRGETRALCLGVTMVVCAVITYYILVTTVLPLYQKSVWTQESKCHLIETNIRDQEELKGKKVPQYPCLWVNVSAAGRWAVLYHTEDTRDQNQQCSYIPGSVDNYQTARADVEKVRAKFQEQQVFYCFSAPRGNETSVLFQRLYGPQALLFSLFWPTFLLTGGLLIIAMVKSNQYLSILAAQK
B2: BK channel β1 subunit: N80A/N142A (protein)
parent chain: B1 parent chain
B3: BK channel β1 subunit: PNGase F (protein)
parent chain: B1 parent chain
B4: BK channel β1 subunit: tunicamycin (protein)
parent chain: B1 parent chain

What was measured:
[1] = western blot, relative β1 level; conditions: glycan lost; control: wild-type β1, untreated
[2] = whole-cell patch clamp, current density; conditions: glycan lost; control: wild-type BK (α+β1)
[3] = whole-cell G-V curve, Boltzmann fit, 300 nM Ca2+; conditions: glycan lost; control: wild-type BK (α+β1)
[4] = whole-cell patch clamp, 100 nM IbTx, 300 nM Ca2+; conditions: glycan lost; control: wild-type BK (α+β1)
[5] = whole-cell patch clamp, 400 nM martentoxin, 300 nM Ca2+; conditions: glycan lost; control: wild-type BK (α+β1)
[6] = whole-cell patch clamp, 400 nM martentoxin, no cytoplasmic Ca2+; conditions: glycan lost; control: wild-type BK (α+β1)
[7] = activation time constant, single exponential fit, +50 to +120 mV; conditions: glycan lost; control: wild-type BK (α+β1)
[8] = whole-cell patch clamp, 100 nM IbTX, 300 nM Ca2+; conditions: glycan lost; control: untreated wild-type BK (α+β1)
[9] = whole-cell patch clamp, 400 nM IbTX, 300 nM Ca2+; conditions: glycan lost; control: untreated wild-type BK (α+β1)
[10] = whole-cell patch clamp, 100 nM MarTX, no cytoplasmic Ca2+; conditions: glycan lost; control: untreated wild-type BK (α+β1)
[11] = whole-cell patch clamp, 400 nM MarTX, no cytoplasmic Ca2+; conditions: glycan lost; control: untreated wild-type BK (α+β1)

Protein | expression_or_secretion [1] | other: channel current [2] | other: voltage dependence of activation, other: V1/2 [3] | other: toxin inhibition of channel current, other: fractional current remaining (If) [4] | other: toxin enhancement of channel current, other: fractional current remaining (If) [5] | other: toxin inhibition of channel current, other: fractional current remaining (If) [6] | other: channel activation kinetics [7] | other: toxin inhibition of channel current, other: fractional current remaining (If) [8] | other: toxin inhibition of channel current, other: fractional current remaining (If) [9] | other: toxin inhibition of channel current, other: fractional current remaining (If) [10] | other: toxin inhibition of channel current, other: fractional current remaining (If) [11]
B1 | no change | no change | no change, 65.35 ± 1.48 vs 66.52 ± 1.47, slope 22.89 ± 1.24 vs 22.55 ± 1.21 | increases, 0.46 ± 0.04 vs 0.92 ± 0.01 | abolishes, 1.04 ± 0.02 vs 1.13 ± 0.01 | increases, 0.72 ± 0.099 vs 0.97 ± 0.018 | decreases |  |  |  | 
B2 | no change | no change |  | increases, 0.46 ± 0.04 vs 0.92 ± 0.01 | abolishes, 0.99 ± 0.02 vs 1.13 ± 0.01 | increases, 0.71 ± 0.064 vs 0.97 ± 0.018 |  |  |  |  | 
B3 |  |  |  |  |  |  |  | increases, 0.54 ± 0.05 vs 0.89 ± 0.01 | increases, 0.43 ± 0.06 vs 0.65 ± 0.03 | increases, 0.83 ± 0.03 vs 1.00 ± 0.03 | increases, 0.63 ± 0.02 vs 1.00 ± 0.03
B4 | no change |  |  |  |  |  |  |  |  |  | 
